Here are results for two molecules from US20220042996A1, “COMPOSITIONS AND METHODS RELATED TO LATROPHILINS AS BIOMARKERS FOR HAEMATOPOIETIC CELL CANCER” (priority 2015, published 2022).

Type in all cases: cell-based
Assay [1] concerns AML-PB001F primary human AML cells. In words: LPHN1/2 protein levels by Western blot in primary human AML cells. Conditions: 4 h, 1 μg/ml LPS, 0.1 μg/ml SCF or 2 μg/ml anti-Tim-3 antibody. The procedure:
Levels of LPHN 1 and LPHN 2, total and phospho-T389 p70 S6K1 were determined by Western blot analysis and compared to β-actin in order to determine equal protein loading, as described by Yasinska I. M. et al (Cell. Mol. Life Sci. (2014) 71 699-710). Li-Cor goat secondary antibodies, conjugated with fluorescent dyes, were used according to the manufacturer's protocol to visualise the proteins of interest using a Li-Cor Odyssey imaging system. Western blot data were analysed quantitatively using Odyssey software and values were normalised against respective β-actin bands.
(§1) Primary human AML mononuclear cells (AML-PB001 F, newly diagnosed/untreated) were purchased from AllCells (Alameda, Calif., USA) and handled in accordance with manufacturer's instructions.
(§2) To analyse LPHN1/2 expression levels in AML-PB001F cells, the cells were exposed to mTOR activators (1 μg/ml LPS, 0.1 μg/ml SCF or 2 μg/ml anti-Tim-3 antibody) for 4 h.
In general terms: A western blot detects proteins with antibodies after separation by electrophoresis.

In assay [2] the test system is primary healthy human leukocytes. Nature of the assay: Latrophilin protein expression by Western blot in primary healthy human leukocytes. As to conditions: primary leucocytes from healthy donors, 4 or 24 h exposure. On the procedure:
Primary AML-PB001F cells were exposed for 4 h (A) and healthy human leukocytes for 4 h (B) or 24 h (C) to indicated concentrations of LPS, SCF and anti-Tim-3. Following cell lysis, latrophilin protein levels were analysed by Western blot. Phospho-S2448 mTOR was measured by ELISA. Furthermore, non-treated THP-1 cells, primary human AML cells and primary healthy human leukocytes, as well as those stimulated for 24 h with 1 μg/ml LPS were subjected to quantitative real time polymerase chain reaction qRT-PCR (D). Images show one representative result of at least four experiments, which gave similar results. Data are mean values±SD (n=4). *-p<0.05; **-p<0.01.
Levels of LPHN 1 and LPHN 2, total and phospho-T389 p70 S6K1 were determined by Western blot analysis and compared to β-actin in order to determine equal protein loading, as described by Yasinska I. M. et al (Cell. Mol. Life Sci. (2014) 71 699-710). Li-Cor goat secondary antibodies, conjugated with fluorescent dyes, were used according to the manufacturer's protocol to visualise the proteins of interest using a Li-Cor Odyssey imaging system. Western blot data were analysed quantitatively using Odyssey software and values were normalised against respective β-actin bands. […]

For the next assay, the system named is mTOR. Nature of the assay: Phospho-S2448 mTOR ELISA in primary human AML cells. As to conditions: AML-PB001F cells; for mTOR activation: 24 h. The procedure: Phosphorylation of mTOR was monitored using ELISA assays as recently described (Yasinska I. M. et al (supra); Abooali M. et al (2014) Sci. Rep. 4 6307; Prokhorov A. et al (supra)). Briefly, ELISA plates were coated with mouse anti-mTOR antibodies and blocked with 2% BSA. Cell lysates were then added to the wells and kept at room temperature for at least 2 h (under constant agitation). After extensive washing with TBST buffer (Tris-Buffered Saline and Tween 20), […] mTOR antibody was added and plates were incubated for at least 2 h at room temperature with constant agitation. Plates were then washed with TBST buffer and incubated with 1:1000 Horse Radish Peroxidase-labelled goat anti-rabbit IgG in TBST buffer. After extensive washing with TBST, bound secondary antibodies were then detected by the peroxidase reaction (ortho-phenylenediamine/H2O2).
as §1
(§3) Experiments were carried out to ascertain whether or not LPHN 1 and LPHN 2 are expressed and function in primary human AML cells. AML-PB001 F primary human mononuclear blasts were used and exposed for 24 h to 1 μg/ml LPS, 500 pM LTX or a combination of these ligands.
as §2
For orientation: An ELISA detects its analyte on a solid surface through an enzyme-linked reagent.

The subject of a further assay is U937 human AML cells. Nature of the assay: IL-6 release by ELISA in U937 cells. Conditions: 24 h, 500 pM LTX in combination with 1 μg/ml LPS. On the procedure: (§4) THP-1 and U937 human leukaemia monocytic macrophages were obtained from the European Collection of Cell Cultures (Salisbury, UK). Cells were cultured in RPMI 1640 media supplemented with 10% foetal calf serum, penicillin (50 IU/ml) and streptomycin sulphate (50 μg/ml).
(§5) Concentrations of IL-6 released into the cell culture media were analysed by ELISA (R&D Systems assay kit) according to the manufacturers protocol.
(§6) Expression of LPHN 1 and LPHN 2 in human AML cell lines—U937 and THP-1—was investigated. Cells were stimulated for 24 h with 1 μg/ml LPS, 500 pM LTX or a combination of these ligands. LPS is a pathogen-associated molecular pattern shared by Gram-negative bacteria and is recognised by the Toll-like receptor 4 (TLR4), which is highly expressed by human myeloid cells. Importantly, LPS was chosen because TLR4 may be targeted by endogenous ligands (like proteins released by dysfunctional mitochondria) to promote expression/release of IL-6 and other important cytokines/growth factors required for leukaemia cell survival.

The subject of assay [3] is AML-PB001F primary human AML cells. Nature of the assay: IL-6 release by ELISA in primary human AML cells. Conditions: 24 h. On the procedure: as §5, §1, §3
The subject of a further assay is THP-1 human AML cells. Nature of the assay: IL-6 release by ELISA in THP-1 cells. As to conditions: 24 h, 500 pM LTX in combination with 1 μg/ml LPS. On the procedure:
as §4, §5, §6

Where [4] appears, read: 500 pM LTX in combination with 1 μg/ml LPS.
Where [5] appears, read: 1 μg/ml LPS alone or 500 pM LTX alone.

“Also recorded” adds a separate entry of the source.

Consider “SCF: Human Stem Cell Factor protein produced in E. coli; binds Kit (CD117)”, for which, in assay [1], the LPHN1/2 expression entry is “significantly up-regulated” and the LPHN2 expression result is given as “significantly up-regulated”. For the same molecule, the latrophilin expression entry in assay [2] is given as “not inducible”. The “phosphorylation of S2448 in mTOR (mTOR activation)” value with mTOR (4 h, 1 μg/ml LPS, 0.1 μg/ml SCF or 2 μg/ml anti-Tim-3 antibody) is listed as “significantly increased; also recorded: strongest effect”.

B1: LTX (protein)
chain: EGEDLTLEEKAEICSELELQQKYVDIASNIIGDLSSLPIAGKIAGTIAAAAMTATHVASGRLDIEQTLLGCSDLPFDQIKEVLENRFNEIDRKLDSHSAALEEITKLVEKSISVVEKTRKQMNKRFDEVMKSIQDAKVSPIISKINNFARYFDTEKERIRGLKLNDYILKLEEPNGILLHFKESRTPTDDSLQAPLFSIIEEGYAVPKSIDDELAFKVLYALLYGTQTYVSVMFFLLEQYSFLANHYYEKGYLEKYDEYFNSLNNVFLDFKSSLVGTGTSNNEGLLDRVLQVLMTVKNSEFLGLEKNGVDEMLNEKINLFNKIKEEIEGKQKMTLSETPENFAQISFDKDITTPIGDWRDGREVRYAVQYASETLFSKISHWSDPVSVREKACPTLRMPVDQTRRNVLVFRKFDSSKPQLVGEITPYLSNFIDIDRDLYNAASNPDSAVGFKEFTKLNYDGANIRATFDHGRTVFHAAAKSGNDKIMFGLTFLAKSTELNQPDKKGYTPIHVAADSGNAGIVNLLIQRGVSINSKTYHFLQTPLHLAAQRGFVTTFQRLMESPEININERDKDGFTPLHYAIRGGERILEAFLNQISIDVNAKSNTGLTPFHLAIIKNDWPVASTLLGSKKVDINAVDENNITALHYAAILGYLETTKQLINLKEINANVVSSPGLLSALHYAILYKHDDVASFLMRSSNVNVNLKALGGITPLHLAVIQGRKQILSLMFDIGVNIEQKTDEKYTPLHLAAMSKYPELIQILLDQGSNFEAKTNSGATPLHLATFKGKSQAALILLNNEVNWRDTDENGQMPIHGAAMTGLLDVAQAIISIDATVVDIEDKNSDTPLNLAAQNSHIDVIKYFIDQGADINTRNKKGLAPLLAFSKKGNLDMVKYLFDKNANVYIADNDGMNFFYYAVQNGHLNIVKYAMSEKDKFEWSNTDNNRRDECPNEECAISHFAVCDAVQFDRIEIVKYFVGTLGNFAICGPLHQAARYGHLDIVKYLVEEEFLSVDGSKTDTPLCYASENGHFTVVQYLVSNGAKVNHDCGNGMTAIDKAITKNHLQVVQFLAANGVDFRRKNSRGTTPFLTAVAENALHIAEYLIREKRQDININEQNVDKDTALHLAVYYKNLQMIKLLIKYGIDVTIRNAYDKTALDIAIDAKFSNIVEYLKTKSGKFRR
On to B1, for which the “LPS-induced IL-6 exocytosis” value with U937 human AML cells and in the assay with THP-1 human AML cells was “highly up-regulated” each time. In assay [3] (setting [4]), the IL-6 exocytosis result is listed as “significantly up-regulated”. The IL-6 release entry in assay [3] (setting [5]) is “did not influence”. In addition, the mTOR activation entry in the assay on mTOR (setting [4]) is given as “significantly up-regulated”; in the assay with mTOR (setting [5]) it was “did not influence”.
